B1: Mitotic spindle assembly checkpoint protein MAD1 (Homo sapiens), Q9Y6D9 (parent)
chain: MEDLGENTMVLSTLRSLNNFISQRVEGGSGLDISTSAPGSLQMQYQQSMQLEERAEQIRSKSHLIQVEREKMQMELSHKRARVELERAASTSARNYEREVDRNQELLTRIRQLQEREAGAEEKMQEQLERNRQCQQNLDAASKRLREKEDSLAQAGETINALKGRISELQWSVMDQEMRVKRLESEKQELQEQLDLQHKKCQEANQKIQELQASQEARADHEQQIKDLEQKLSLQEQDAAIVKNMKSELVRLPRLERELKQLREESAHLREMRETNGLLQEELEGLQRKLGRQEKMQETLVGLELENERLLAKLQSWERLDQTMGLSIRTPEDLSRFVVELQQRELALKDKNSAVTSSARGLEKARQQLQEELRQVSGQLLEERKKRETHEALARRLQKRVLLLTKERDGMRAILGSYDSELTPAEYSPQLTRRMREAEDMVQKVHSHSAEMEAQLSQALEELGGQKQRADMLEMELKMLKSQSSSAEQSFLFSREEADTLRLKVEELEGERSRLEEEKRMLEAQLERRALQGDYDQSRTKVLHMSLNPTSVARQRLREDHSQLQAECERLRGLLRAMERGGTVPADLEAAAASLPSSKEVAELKKQVESAELKNQRLKEVFQTKIQEFRKACYTLTGYQIDITTENQYRLTSLYAEHPGDCLIFKATSPSGSKMQLLETEFSHTVGELIEVHLRRQDSIPAFLSSLTLELFSRQTVA

Variants of: B1
Details: with cenpe_human CENPE

Variant | effect of a mutation on the interaction
L17A;N18A;N19A;F20A;I21A | disrupting interaction strength

Variants of: B1
Details: with cenpe_human CENPE
Remark: another data set of the same source

Variant | effect of a mutation on the interaction
L17A;N18A;N19A;F20A;I21A | decreasing interaction strength
